What was measured:
[1] = molecular target: T1, human EGFR (human, UniProt P00533 25-1210); assay: co-immunoprecipitation from cotransfected 293T cells
T1 construct: whole, on cells

[2] = molecular target: T2, mouse VEGFR2 (mouse, UniProt P35918 20-1345); assay: as above
T2 construct: whole, on cells

[3] = molecular target: T3, mouse TIE2 (mouse, UniProt Q02858 23-1122); assay: as above
T3 construct: whole, on cells

[4] = molecular target: T4, human EphB3 (human, UniProt P54753 34-998); assay: anti-Myc immunoprecipitation from 293T cells co-expressing RYK, AF-6 and EphB3 (FIG. 4b)
T4 construct: whole, on cells; also called Eph receptor B3
T4 sequence (looked up): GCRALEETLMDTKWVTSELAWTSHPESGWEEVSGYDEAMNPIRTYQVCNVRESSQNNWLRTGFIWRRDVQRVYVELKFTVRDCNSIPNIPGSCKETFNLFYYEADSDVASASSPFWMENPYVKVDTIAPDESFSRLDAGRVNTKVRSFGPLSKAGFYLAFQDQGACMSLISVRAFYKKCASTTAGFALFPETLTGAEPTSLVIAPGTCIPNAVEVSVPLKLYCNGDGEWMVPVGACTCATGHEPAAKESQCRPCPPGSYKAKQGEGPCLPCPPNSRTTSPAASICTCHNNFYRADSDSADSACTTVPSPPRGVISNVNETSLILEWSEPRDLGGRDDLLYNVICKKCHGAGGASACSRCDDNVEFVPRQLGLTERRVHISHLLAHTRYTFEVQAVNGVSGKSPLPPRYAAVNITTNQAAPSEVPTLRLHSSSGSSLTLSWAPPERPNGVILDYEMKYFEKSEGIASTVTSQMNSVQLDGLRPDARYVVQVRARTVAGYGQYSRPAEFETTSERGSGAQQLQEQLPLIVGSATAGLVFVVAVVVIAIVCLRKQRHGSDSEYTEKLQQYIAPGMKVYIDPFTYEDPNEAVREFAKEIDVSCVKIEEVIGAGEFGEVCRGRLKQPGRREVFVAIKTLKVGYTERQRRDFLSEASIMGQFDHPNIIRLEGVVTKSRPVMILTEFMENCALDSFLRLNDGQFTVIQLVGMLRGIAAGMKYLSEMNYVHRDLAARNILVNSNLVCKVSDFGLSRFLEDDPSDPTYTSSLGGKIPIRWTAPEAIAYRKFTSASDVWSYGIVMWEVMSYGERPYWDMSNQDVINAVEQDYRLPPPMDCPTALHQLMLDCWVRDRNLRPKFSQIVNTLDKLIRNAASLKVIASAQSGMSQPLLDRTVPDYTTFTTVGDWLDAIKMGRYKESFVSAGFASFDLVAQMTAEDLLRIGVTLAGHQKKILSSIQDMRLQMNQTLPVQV
Procedure: Lysis and subsequent analysis of complexes in triple-transfected cells was performed as previously described (13). The inventors prepared embryonic and tissue lysates by Dounce homogenization. The inventors cleared lysates of insoluble debris by centrifugation, and performed immunoprecipitation from cleared lysates containing equal amounts of total protein as assessed by the BCA assay (Pierce). Immune complexes were captured by incubation with protein A-, G- or L-conjugated beads. The mouse anti-RYK monoclonal antibody (IgMₓ isotype⁵) was covalently coupled to CNBr-activated Sepharose 4B (Pharmacia) at 1 mg/ml packed beads for immunoprecipitation or cross-linked it in solution using a goat anti-mouse IgM (Jackson Immunoresearch). The inventors used anti-FLAG monoclonal antibody M2 (Sigma) for immunoprecipitation as an affinity gel and for Western blotting in a biotinylated form. Anti-AF-6 monoclonal antibody (clone 35) was obtained from Transduction Laboratories and anti-Myc monoclonal antibody (clone 9E10) from Zymed Laboratories. Immune complexes were collected by centrifugation and washed three times in HNTG, eluted in 20-50 μL of 2×SDS-PAGE sample buffer containing 10% v/v 2-mercaptoethanol, fractionated by SDS-PAGE and electroblotted to Immobilon P (Millipore) for Western analysis. […]

[5] = molecular target: T5, endogenous mouse AF-6 (mouse, UniProt Q9QZQ1 1-1820, limits assumed); assay: co-immunoprecipitation from mouse tissue lysates, both directions (FIG. 4c)
T5 construct: also called Afadin
T5 sequence (Q9QZQ1 whole entry): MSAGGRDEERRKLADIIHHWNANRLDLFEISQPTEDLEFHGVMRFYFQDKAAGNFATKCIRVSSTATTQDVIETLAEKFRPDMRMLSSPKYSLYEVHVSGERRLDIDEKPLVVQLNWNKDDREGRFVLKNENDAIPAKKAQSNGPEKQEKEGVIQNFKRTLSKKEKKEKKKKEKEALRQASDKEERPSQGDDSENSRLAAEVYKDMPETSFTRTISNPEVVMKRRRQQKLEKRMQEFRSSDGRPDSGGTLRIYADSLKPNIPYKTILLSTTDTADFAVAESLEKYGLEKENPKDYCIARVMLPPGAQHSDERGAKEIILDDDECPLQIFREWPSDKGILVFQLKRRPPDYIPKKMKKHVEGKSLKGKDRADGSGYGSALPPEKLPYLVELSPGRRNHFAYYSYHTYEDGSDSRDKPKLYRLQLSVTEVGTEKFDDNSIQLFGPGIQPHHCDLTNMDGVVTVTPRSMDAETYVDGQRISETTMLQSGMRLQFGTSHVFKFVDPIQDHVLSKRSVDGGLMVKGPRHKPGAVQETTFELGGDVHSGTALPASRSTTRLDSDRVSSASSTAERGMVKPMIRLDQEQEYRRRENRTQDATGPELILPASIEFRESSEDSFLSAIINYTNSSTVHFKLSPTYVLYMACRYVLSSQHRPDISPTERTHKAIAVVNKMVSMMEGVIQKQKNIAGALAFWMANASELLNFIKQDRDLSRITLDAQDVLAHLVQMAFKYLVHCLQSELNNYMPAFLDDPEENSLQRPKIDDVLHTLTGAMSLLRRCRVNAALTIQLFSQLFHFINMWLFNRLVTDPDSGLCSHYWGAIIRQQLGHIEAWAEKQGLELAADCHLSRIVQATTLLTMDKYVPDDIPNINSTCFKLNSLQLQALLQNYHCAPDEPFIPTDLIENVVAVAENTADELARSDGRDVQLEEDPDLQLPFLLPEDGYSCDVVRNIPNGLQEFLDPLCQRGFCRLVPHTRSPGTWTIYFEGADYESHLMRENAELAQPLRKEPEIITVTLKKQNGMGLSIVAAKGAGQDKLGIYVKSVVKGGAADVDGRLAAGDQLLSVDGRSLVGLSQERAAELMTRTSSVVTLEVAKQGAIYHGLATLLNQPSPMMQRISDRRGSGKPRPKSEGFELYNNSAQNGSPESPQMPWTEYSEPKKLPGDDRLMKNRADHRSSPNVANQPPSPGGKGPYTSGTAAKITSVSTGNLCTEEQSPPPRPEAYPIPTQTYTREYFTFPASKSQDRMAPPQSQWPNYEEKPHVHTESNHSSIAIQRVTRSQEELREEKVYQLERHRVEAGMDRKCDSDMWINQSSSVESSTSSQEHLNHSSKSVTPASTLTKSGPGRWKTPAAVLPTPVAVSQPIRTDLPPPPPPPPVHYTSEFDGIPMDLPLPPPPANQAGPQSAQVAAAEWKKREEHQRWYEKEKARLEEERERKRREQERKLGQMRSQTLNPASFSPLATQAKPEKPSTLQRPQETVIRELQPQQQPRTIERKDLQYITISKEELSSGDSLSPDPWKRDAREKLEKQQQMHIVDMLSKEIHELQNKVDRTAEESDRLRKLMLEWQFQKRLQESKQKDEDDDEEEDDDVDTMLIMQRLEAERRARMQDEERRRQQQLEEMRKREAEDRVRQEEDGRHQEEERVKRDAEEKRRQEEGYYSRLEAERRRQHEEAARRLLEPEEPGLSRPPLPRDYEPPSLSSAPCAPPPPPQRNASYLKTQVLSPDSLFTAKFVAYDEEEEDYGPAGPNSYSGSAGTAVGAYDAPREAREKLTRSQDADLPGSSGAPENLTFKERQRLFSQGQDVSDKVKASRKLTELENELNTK

T2 sequence (P35918 20-1345): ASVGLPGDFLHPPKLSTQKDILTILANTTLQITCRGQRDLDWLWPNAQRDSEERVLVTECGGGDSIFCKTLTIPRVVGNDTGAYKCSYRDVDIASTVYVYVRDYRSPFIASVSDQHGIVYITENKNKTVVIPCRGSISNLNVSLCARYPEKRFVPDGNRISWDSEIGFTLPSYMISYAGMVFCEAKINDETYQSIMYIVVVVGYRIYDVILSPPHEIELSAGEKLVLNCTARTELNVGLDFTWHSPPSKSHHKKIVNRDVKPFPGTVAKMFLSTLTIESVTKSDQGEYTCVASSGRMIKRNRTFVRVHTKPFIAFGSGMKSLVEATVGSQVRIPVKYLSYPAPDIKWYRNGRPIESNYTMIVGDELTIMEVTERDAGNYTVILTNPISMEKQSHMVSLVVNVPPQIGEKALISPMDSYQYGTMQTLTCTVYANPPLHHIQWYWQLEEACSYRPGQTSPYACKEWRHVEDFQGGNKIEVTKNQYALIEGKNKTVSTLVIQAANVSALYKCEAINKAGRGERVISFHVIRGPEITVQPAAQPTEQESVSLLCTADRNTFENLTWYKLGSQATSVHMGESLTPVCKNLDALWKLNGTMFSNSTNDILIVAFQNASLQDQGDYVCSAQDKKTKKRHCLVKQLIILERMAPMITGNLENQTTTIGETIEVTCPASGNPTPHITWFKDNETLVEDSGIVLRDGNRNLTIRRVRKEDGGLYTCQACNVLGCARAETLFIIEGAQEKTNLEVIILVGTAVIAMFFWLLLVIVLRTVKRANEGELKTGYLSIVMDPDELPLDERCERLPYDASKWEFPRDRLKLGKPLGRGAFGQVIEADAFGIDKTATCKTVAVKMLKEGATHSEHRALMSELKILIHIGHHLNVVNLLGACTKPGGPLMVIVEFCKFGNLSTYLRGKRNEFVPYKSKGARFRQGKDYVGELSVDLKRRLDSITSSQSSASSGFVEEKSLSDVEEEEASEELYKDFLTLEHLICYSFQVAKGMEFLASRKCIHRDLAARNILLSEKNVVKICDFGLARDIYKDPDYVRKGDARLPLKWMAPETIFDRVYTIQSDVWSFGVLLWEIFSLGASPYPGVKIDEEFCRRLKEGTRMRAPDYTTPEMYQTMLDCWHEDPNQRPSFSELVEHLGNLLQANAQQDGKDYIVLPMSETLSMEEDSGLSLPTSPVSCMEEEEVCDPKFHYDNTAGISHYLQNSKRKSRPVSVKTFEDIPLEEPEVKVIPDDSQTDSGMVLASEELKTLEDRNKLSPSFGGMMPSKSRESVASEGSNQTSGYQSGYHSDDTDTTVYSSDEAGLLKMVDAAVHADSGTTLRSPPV
T3 sequence (Q02858 23-1122): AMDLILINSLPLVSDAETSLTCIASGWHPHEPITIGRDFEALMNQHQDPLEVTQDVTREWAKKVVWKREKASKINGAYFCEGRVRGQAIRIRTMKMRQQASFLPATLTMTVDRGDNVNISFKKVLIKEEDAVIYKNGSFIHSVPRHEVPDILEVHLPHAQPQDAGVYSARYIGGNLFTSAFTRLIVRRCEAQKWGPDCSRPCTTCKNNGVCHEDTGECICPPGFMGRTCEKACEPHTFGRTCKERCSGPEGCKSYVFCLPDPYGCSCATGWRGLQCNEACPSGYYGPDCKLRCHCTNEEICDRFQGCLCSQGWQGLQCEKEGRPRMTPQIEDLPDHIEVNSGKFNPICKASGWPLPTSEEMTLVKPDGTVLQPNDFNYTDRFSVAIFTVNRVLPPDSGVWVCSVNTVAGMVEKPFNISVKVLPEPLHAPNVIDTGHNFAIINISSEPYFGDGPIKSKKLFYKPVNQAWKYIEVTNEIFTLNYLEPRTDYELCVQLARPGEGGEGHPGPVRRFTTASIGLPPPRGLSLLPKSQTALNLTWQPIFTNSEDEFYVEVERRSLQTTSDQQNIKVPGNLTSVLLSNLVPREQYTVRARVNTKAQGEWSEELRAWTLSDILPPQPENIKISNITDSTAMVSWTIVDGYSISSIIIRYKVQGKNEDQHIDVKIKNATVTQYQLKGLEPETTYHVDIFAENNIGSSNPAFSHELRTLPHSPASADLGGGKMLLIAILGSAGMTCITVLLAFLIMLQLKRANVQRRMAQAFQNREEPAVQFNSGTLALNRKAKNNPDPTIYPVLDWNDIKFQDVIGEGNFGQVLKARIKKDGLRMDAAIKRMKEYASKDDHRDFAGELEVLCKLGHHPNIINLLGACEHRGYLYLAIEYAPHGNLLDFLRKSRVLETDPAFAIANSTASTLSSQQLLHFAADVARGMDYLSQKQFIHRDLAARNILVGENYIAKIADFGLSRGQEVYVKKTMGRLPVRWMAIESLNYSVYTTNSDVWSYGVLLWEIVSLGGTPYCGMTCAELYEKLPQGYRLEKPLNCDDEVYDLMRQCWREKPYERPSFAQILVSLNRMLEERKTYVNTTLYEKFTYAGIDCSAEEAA

Row | Binder | binding result [1] | binding result [2] | binding result [3] | binding result [4] | binding result [5]
1 | Myc2.RYK (double Myc epitope-tagged mouse RYK) (receptor, UniProt Q01887 35-594, looked up, not shown: small tags and cut ends, mature; also called wild-type RYK) RSPALAAAPAGPSVSLYLSEDEVRRLLGLDAELYYVRNDLISHYALSFNLLVPSETNFLHFTWHAKSKVEYKLGFQVDNFVAMGMPQVNISAQGEVPRTLSVFRVELSCTGKVDSEVMILMQLNLTVNSSKNFTVLNFKRRKMCYKKLEEVKTSALDKNTSRTIYDPVHAAPTTSTRVFYISVGVCCAVIFLVAIILAVLHLHSMKRIELDDSISASSSSQGLSQPSTQTTQYLRADTPNNATPITSSSGYPTLRIEKNDLRSVTLLEAKAKVKDIAISRERITLKDVLQEGTFGRIFHGILVDEKDPNKEKQTFVKTVKDQASEVQVTMMLTESCKLRGLHHRNLLPITHVCIEEGEKPMVVLPYMNWGNLKLFLRQCKLVEANNPQAISQQDLVHMAIQIACGMSYLARREVIHRDLAARNCVIDDTLQVKITDNALSRDLFPMDYHCLGDNENRPVRWMALESLVNNEFSSASDVWAFGVTLWELMTLGQTPYVDIDPFEMAAYLKDGYRIAQPINCPDELFAVMACCWALDPEERPKFQQLVQCLTEFHAALGAYV | no binding | no binding | no binding | binds | 
2 | endogenous mouse RYK (receptor, UniProt Q01887 35-594, looked up, also called RYK beta subunit) RSPALAAAPAGPSVSLYLSEDEVRRLLGLDAELYYVRNDLISHYALSFNLLVPSETNFLHFTWHAKSKVEYKLGFQVDNFVAMGMPQVNISAQGEVPRTLSVFRVELSCTGKVDSEVMILMQLNLTVNSSKNFTVLNFKRRKMCYKKLEEVKTSALDKNTSRTIYDPVHAAPTTSTRVFYISVGVCCAVIFLVAIILAVLHLHSMKRIELDDSISASSSSQGLSQPSTQTTQYLRADTPNNATPITSSSGYPTLRIEKNDLRSVTLLEAKAKVKDIAISRERITLKDVLQEGTFGRIFHGILVDEKDPNKEKQTFVKTVKDQASEVQVTMMLTESCKLRGLHHRNLLPITHVCIEEGEKPMVVLPYMNWGNLKLFLRQCKLVEANNPQAISQQDLVHMAIQIACGMSYLARREVIHRDLAARNCVIDDTLQVKITDNALSRDLFPMDYHCLGDNENRPVRWMALESLVNNEFSSASDVWAFGVTLWELMTLGQTPYVDIDPFEMAAYLKDGYRIAQPINCPDELFAVMACCWALDPEERPKFQQLVQCLTEFHAALGAYV |  |  |  |  | binds
